Experimental data published in patent publication US20230242902A1, “A HIGHLY ERROR-PRONE […] R[…] FOR TARGETED CONTINUOUS EVOLUTION IN VIVO” (The Regents of the University of California, priority 2017, published 2023).
Changes are numbered by the printed parent chain. Numbers in names are those of the source.

System: p2-encoded leu2*
Assay: p2 leu2* fluctuation tests in GA-Y021 (p2 mutation rate reporter strain)
Format: cell-based, S. cerevisiae
Conditions: for Per-base substitution rate pf p2: TP-DNAP2 variant in trans, wt TP-DNAP2 in cis, 36 replicates, (95% C.I.); for Fold increase: p2 substitution rate over no variant in trans
From the text: For fluctuation tests used to measure p2 mutation rates, leu2* served as a marker for detecting mutational events. leu2* is a disabled version of LEU2, where Q180 is replaced with a TAA stop codon. Q180 is a permissive site where mutation to any other codon other than TAG and TGA results in functional reversion to LEU2. These mutational events can be detected by plating scores of parallel cultures on medium lacking leucine and counting the number distribution of functional LEU2 mutants.
For TP-DNAP2 library screening, each library member was subjected to small-scale leu2* fluctuation tests with six replicates. 190 library members from each yeast library transformation were arrayed and inoculated into liquid SC medium lacking uracil and histidine, and passaged three times at 1:10,000 dilutions. mKate2 fluorescence was measured at every passage on a microplate reader (TECAN Infinite® 200 PRO, settings: λex=588, λem=633) to track p2 copy number stabilization. To perform fluctuation tests, each library member was diluted 1:10,000 into liquid SC medium buffered to pH 5.8 and lacking uracil, histidine, tryptophan, and dilutions were split into six 100 μL replicates. Cultures were grown for 48 hours at 30° C. to reach saturation. Saturated cultures were washed with 200 μL 0.9% NaCl to remove residual leucine and resuspended in 35 μL of 0.9% NaCl. 10 μL of this resuspension was spot plated onto solid SC medium buffered to pH 5.8 and lacking uracil, histidine, tryptophan and leucine. Spot plates were allowed to dry and incubated at 30° C. Colonies were counted after 5 days. Colony counts were used to calculate the expected number of LEU2 functional mutants (m), using the p0 method (Foster, 2006, Methods Enzymol, 409:195-213).
To precisely measure p1 and p2 per-base substitution mutation rates, several modifications were made to the small-scale protocol. First, 36 replicates were performed for reconfirmation of candidate TP-DNAP2 mutators, and 48 replicates for genomic and mutual orthogonality experiments. Titers were also determined for each strain after spot plating by pooling the residual volume from 4 replicates and plating dilutions on YPD. The expected number of LEU2 functional mutants (m) was determined by the Ma-Sandri-Sarkar maximum likelihood estimator (as calculated by the FALCOR tool and corrected for partial plating (Foster, 2006, Methods Enzymol, 409:195-213; Sarkar et al., 1992, Genetica, 85:173-179; Hall et al., 2009, Bioinformatics, 25:1564-1565). The mean mKate2 fluorescence was determined from 50,000 event counts on Attune™ NxT Flow Cytometer and converted to p2 copy number by using a calibration curve. To determine per-base substitution rates, the corrected m was normalized to the average cell titer, the p2 copy number, and the target size for functional leu2* reversion (2.33 bp). 95% confidence intervals were similarly scaled.
To identify error-prone TP-DNAP2s, a small library of TP-DNAP2s diversified at locations hypothesized to be responsible for DNAP fidelity was screened. […] Four distinct site-saturation mutagenesis libraries were generated, each diversifying S370, Y424, L474, or F882 in TP-DNAP2 encoded on pGA55-reTP-DNAP2. Due to unsuccessful attempts to generate a strain with a full deletion of p2-encoded TP-DNAP2 and simultaneous integration of mKate, URA3, and leu2*, each library was transformed into GA-Y021 for convenient screening. However, since GA-Y021 still encodes wt TP-DNAP2 on p2-delORF1-mUL*, p2 mutation rates measured in this format are the result of in tandem replication of p2 by wt TP-DNAP2 and each TP-DNAP2 variant encoded in trans. 6-fold coverage of each library was maintained by picking 190 yeast colonies and passaging under selection for URA3 to stabilize the copy number of p2-delORF1-mUL* in the presence of the newly introduced TP-DNAP2 variants. […]

B1: S370P: TP-DNAP2 variant (protein, listed as Kluyveromyces lactis)
chain: MNDELAFLNSQIDDYSDDIEFLRTEVFRINRYSKSIYSLMKNSSKEAIKETIEFNKYGQEIHSKIKEKEISLIEAIKLMEKKYKYLRSLNKTKDKSKKKKIHTKDIETLKTIYKTKADFDIRNFKNAETFTYENYSLLIPSEKELIDLIPEIEEDYSYYFYVSLTITGPTIFGGVTRKVPIIDTYGDINKDFYNKIKENITKVLDRVPFYEEKESEIICKKVLITLTVNKWESIDKWYKNVKSKSKKFKDFTLFLASDTSKNCVQQCVEYLGGKWNTNYSLEKMIPQQKIVTYIPLLMDIQYVQSMEDLISDFDEPNTDCKNIARLLKWNGHMGVITKIDKDVKINRIQRKRIIDVENKEVKEVFFDIEPFSDETKHQIPYLICWSYLGELYYRTGKNCIKEFVEEILSYNVDIILYAWYGSGYDYQHVLPYMKSKCIKDKYIIKNNMITYGELYYENAIIYLKDPYLFILTSLDKASKAFNVINKGEFPHSIIHSWEDLNKILPNWVKIQKRMIEYKDDNKLNIYYKNIEIFENDRNYNTILENAIEYCKVDVLAMEKVWIKFKKLLEKNLNITVSVKTFTLSQLSMKIMESKLPKYVKLYVPTLEEYSKIRNAIYGGRVISKNGIYEENIVYADVVSLYPSAMKLLKHSYGKPKLVDYIDFEKHGIYRVTLLNKHDQEPKNYLNFVPRRINRKLTWEWFKIHEGWYHTYDLIIAKSEGFDIYCHEGFEYPEKDYIFNDFIDTLYSMKETHTACSCEEQPCPIRMVAKIALNGGGYGKFVQKPIDKEIYIVKRDVVAGECDKLQENENGEICIGKRLVKRPLFYNLDSENYDKMIIEKEDEPIYSTQCGISILSASRYRLYKLCKQFENIDIIYSDTDSIFVKQKSVDWELFKSKCGSELGQLDSTIDDTKNAIISKMYIGGAKMYAFEYLNNKNKLITKLHCKGVPNYMLSLNQFKYLMESPDNTIAYKFEIIRRKLVNVITKDLIKDIKQT
Per-base substitution rate pf p2: 50.1 (32.4-70.4) ×10^−10 | Fold increase: 8.4

B2: S370R: TP-DNAP2 variant (protein, listed as Kluyveromyces lactis)
chain: B1 chain with P370R
Per-base substitution rate pf p2: 31.9 (22.4-42.5) ×10^−10 | Fold increase: 5.3

B3: S370E: TP-DNAP2 variant (protein, listed as Kluyveromyces lactis)
chain: B1 chain with P370E
Per-base substitution rate pf p2: 27.9 (19.7-37.2) ×10^−10 | Fold increase: 4.7

B4: S370K: TP-DNAP2 variant (protein, listed as Kluyveromyces lactis)
chain: B1 chain with P370K
Per-base substitution rate pf p2: 26.2 (18.0-35.4) ×10^−10 | Fold increase: 4.4

B5: S370L: TP-DNAP2 variant (protein, listed as Kluyveromyces lactis)
chain: B1 chain with P370L
Per-base substitution rate pf p2: 14.8 (9.32-21.1) ×10^−10 | Fold increase: 2.5

B6: L474D: TP-DNAP2 variant (protein)
chain: MDYKDKALNDLRNVYADFDSLPLDFRQILIKDRATLLQKEDVEKKILERQEDAKKYAEYLKQSEIPERISLPNIKRHKGVSISFEETSEDMVLEPRPFIFDGLNIRCFRRETIFSLKNKILNMVKESSSFKNVSRQSVSFMYFKIFNKGKVIASTKSVNIYEDKIDERLEDLCNNFDDVLKKIIDVTYGYESLFVSETYSYVIFYAKSIYFPQPRCVNNWGNNIPNILTFDSFKLFTANKNNVSCIKQCSRFLWQKDFNTLEEMIEYKNGNICIVTPQLHINDVRDIKSFNDIRLYSESPIKTFSVIDNTITYLFYFKEHLGVIFNITKSRHDRRVTKFSPLSKFSDVKNITVCFDIESYFDPEKESNQVNIPFICCASIIYNKVIGNIVDFEGRDCVAQMIEYVVDICGELNISSVELIAHNGGGYDFHYILSSMYNPAAIKNILIRNNSFISFNFAHDGVKFSVKDSYSFLDCSLANASKAFLNEETFKKTDFPHHDLKTADDLYKVYKEWSSVNTEINHVVEKEKLLITSEHIVNFTKNDKSKTLIEWSKDYCRNDVLVLSKVWLEFKNAVEDIFNCELVDQTMTLAGLSYKLFQANMPFDVELRHPNKEDYFNMREALIGGRCISVNGIYKDVLCLDVKSLYPASMAFYDQPYGSFKRVSSRPKDELGIYYVRVTPNRNNKSNFFPIRSHNKITYNNFEESTYIAWYTNVDIDIGLSEGHNIEYIPFDSYGNIGYSWSKKGKIFEKYIKDVLYKLKIKYEKQNNKVKRNVIKIIMNSLWGKFAQKWVNFEYFIKSEDDIDFESEEAYKIWDTDFMLIKKIKESTYSSKPIQNGVFTLSWARYHMKSIWDAGAKEGAECIYSDTDSIFVHKEHFKKNAKFMLNGLKVPIIGSEVGQLELECEFDKLLCAGKKQYMGFYTYFQDGKPCIKEKKRFKGIPSNYIIPELYAHLLSGADKEAKIQFLKFRREWGSVKGYIENKTVKAT
Per-base substitution rate pf p2: 12.2 (7.33-17.9) ×10^−10 | Fold increase: 2.0

B7: L474A: TP-DNAP2 variant (protein)
chain: B6 chain with D474A
Per-base substitution rate pf p2: 8.37 (4.80-12.6) ×10^−10 | Fold increase: 1.4

B8: L474V: TP-DNAP2 variant (protein)
chain: B6 chain with D474V
Per-base substitution rate pf p2: 5.76 (2.88-9.33) ×10^−10 | Fold increase: 1.0

B9: Y424E: TP-DNAP2 variant (protein, listed as Kluyveromyces lactis)
chain: B1 chain with P370S, Y424E
Per-base substitution rate pf p2: 73.3 (55.2-93.3) ×10^−10 | Fold increase: 12.3
